Results as given in patent publication US20260062466A1.
Where a chain is given by its changes, count along the chain named.

B1: 516.F07 (antibody, V domains shown)
VH: EVQLVQSGAEVKKPGESLKISCKGSGYRFTSYWIAWVRQMPGKGLECMGIIYPGDSDTRYSPSFQGQVTISVDKSISTAYLQWSSLKASDTAMFYCARHNNNWSLQGYFDYWGQGTLVTVSS
VL: PSALTQPASVSGSPGQSITISCTGTSSDVGGYNYVSWYQQHPGKAPKLMIYDVSNRSSGVSNRFSGSKSGNTASLTISGLQAEDEADYYCSSYTGSSTSNYVFGTGTKVTVL
B2: 516.H07 (antibody, V domains shown)
VH: EVQLVESGGGLVQPGGSLRLSCAASGFTFSSYEMNWVRQAPGKGLEWVSYMSYTGSTIYYADSVKGRFTISRDNGKNSLYLQMNSLRVEDTAVYYCARGGVVVAPTYFDYWGQGTLVTVSS
VL: QSVLTQPPSVSGAPGQRVTISCTGSSSNIGAGYDVHWYQQLPGTAPKLLIYHNNNRPSGVPDRFSASKSGTSASLAITGLQAEDEADYYCQSYDSSLSGWVFGGGTKLTVL
B3: 520.D02 (antibody, V domains shown)
VH: QVQLVQSGSELQKPGASVKVSCKASGYTFTENAIIWVRQAPGQGLEWMGRIIRYPGRPTIAQGFTGRFGFSLDTSINTAYLEISNLKAEDTAFFYCAREYCDSSSCSSFDYWGQGTLVTVSS
VL: QSVLTQPPSASGSPGQSVTISCTGTNNDVGIYSYVSWYQQHPGKAPKLMIYEVSKRPSGVPDRFSGSKSGNTASLTVSGLQADDEADYYCSSYAGSNSYVFGSGTKVTVL
B4: 516.H09 (antibody, V domains shown)
VH: QLQLQESGPGLVKPSETLSLTCTVSGGSISSSSYYWGWIRQPPGKGLEWIGSIYYSGSTYYNPSLKSRVTISVDTSKNQFSLKLSSVTAADTAVYYCARHSYCSGGSCYLAPLGDWGQGTLVTVSS
VL: SYVLTQPPSVSVAPGKTARITCGGNNIGSKSVHWYQQKPGQAPVLVIYYDSDRPSGIPERFSGSNSGNTATLTISRVEAGDEADYYCQVWDSSSDFYVFGTGTKVTVL
B5: 516.D09 (antibody, V domains shown)
VH: QVQLVQSGAEVKKPGSSVKVSCKAFGGTFSSSAITWVRQAPGQGLEWMGRIIPIFGTANYAQKFQGRVTITADKSTTTAYMELSSLRSEDTAVYYCALKADSYCSGSSCYPSFDYWGQGTLVTVSS
VL: B4 VL with K38R, I47V, Y49D, F96Q, Y97E, T101G, V105L
B6: 506.C01 (antibody, V domains shown)
VH: QVQLQESGPGLVKPSQTLSLTCTVSGGSISSDDYYWTWIRLPPGKGLEWIGYIFYTGGTYYNPSLKSRVTISLDRSKNQFSLKLSSVTAADTAVYFCARAPETYCSTTNCYKGYFDSWGQGTLVTVSS
VL: DIQMTQSPSSVSASVGDRVTITCRASQGISSWLGWYQQKPGKAPKLLIYAASSLQSGVPSRFSGSGSGTDFTLTISSLQPEDFATYYCQQANSFPRTFGQGTKVEIK

Molecular target: CHIKV-LR 2006 (virus) (Chikungunya virus strain LR 2006)
Experiment: cell-based or functional assay

Binder | FRNT neutralisation, LR 2006 EC50 [µg/mL]
B1 | 0.031
B2 | 0.061
B3 | 0.005
B4 | 0.182
B5 | 0.248

Molecular target: ONNV (O'nyong'nyong virus, MP30) envelope glycoproteins (O'nyong'nyong virus strain MP30)
Experiment: cell-based or functional assay

Binder | FRNT neutralisation of ONNV, EC50 [µg/mL]
B6 | < 0.05
B2 | < 0.05

Molecular target: CHIKV-37997 (virus) (Chikungunya virus strain 37997) (UniProt Q5XXP3)
Sequence (Q5XXP3 326-748 limits assumed, chain 1 of 2): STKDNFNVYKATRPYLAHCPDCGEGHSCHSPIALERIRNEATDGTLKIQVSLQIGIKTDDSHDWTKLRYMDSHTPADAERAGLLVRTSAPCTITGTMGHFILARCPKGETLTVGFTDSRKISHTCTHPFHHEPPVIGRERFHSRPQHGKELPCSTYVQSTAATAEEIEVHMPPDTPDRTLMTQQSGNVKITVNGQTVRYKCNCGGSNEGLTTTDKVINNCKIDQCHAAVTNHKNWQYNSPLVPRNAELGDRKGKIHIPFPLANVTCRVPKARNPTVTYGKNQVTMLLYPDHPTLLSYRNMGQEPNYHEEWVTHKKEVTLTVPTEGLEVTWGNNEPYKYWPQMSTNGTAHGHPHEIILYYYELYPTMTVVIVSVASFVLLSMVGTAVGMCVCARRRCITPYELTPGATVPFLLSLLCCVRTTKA
Sequence (Q5XXP3 810-1248 limits assumed, chain 2 of 2): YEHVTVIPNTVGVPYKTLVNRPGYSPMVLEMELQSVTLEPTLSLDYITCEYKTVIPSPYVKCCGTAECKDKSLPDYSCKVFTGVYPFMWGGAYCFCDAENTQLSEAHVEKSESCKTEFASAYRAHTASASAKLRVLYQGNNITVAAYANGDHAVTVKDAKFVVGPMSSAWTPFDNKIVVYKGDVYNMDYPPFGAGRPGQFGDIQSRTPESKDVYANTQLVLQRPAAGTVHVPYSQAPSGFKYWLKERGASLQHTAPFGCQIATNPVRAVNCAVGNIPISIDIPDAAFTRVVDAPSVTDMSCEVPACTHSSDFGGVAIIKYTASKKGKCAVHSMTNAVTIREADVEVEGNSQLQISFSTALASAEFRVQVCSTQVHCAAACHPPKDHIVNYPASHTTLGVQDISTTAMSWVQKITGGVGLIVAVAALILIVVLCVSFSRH
Experiment: cell-based or functional assay

Binder | FRNT neutralisation, 37997 EC50 [µg/mL]
B1 | 0.004
B2 | 0.91
B3 | 0.002
B4 | 0.526
B5 | 0.35
